The target of assay [1] is biotinylated mouse anti dengue IgG (clone 13C11). As to the kind of experiment: Dengue IgM indirect ELISA: Prep A 1/1000 premixed with 13C11-Biotin 1/10,000, dengue 2 antigen plate, HRP sheep anti Human IgM.
Assay [2] has the same target. As to the kind of experiment: Dengue IgM capture ELISA: Prep A […] premixed with 13C11-Biotin 1.6 µg/ml, sheep anti human IgM strips, dengue antigen with anti dengue-HRP tracer.
The target is the same in assay [3]. As to the kind of experiment: Dengue IgM indirect ELISA: Prep A 1/10 premixed with 13C11-Biotin 1/10,000, dengue 2 antigen plate, HRP sheep anti Human IgM.
Assay [4] has the same target. As to the kind of experiment: Dengue IgM indirect ELISA: Prep A 1/100 premixed with 13C11-Biotin 1/10,000, dengue 2 antigen plate, HRP sheep anti Human IgM.
Assay [5] shares this target. As to the kind of experiment: Dengue IgM capture ELISA: Prep B 1.0 µg/ml premixed with 13C11-Biotin 1.6 µg/ml, sheep anti human IgM strips, dengue antigen with anti dengue-HRP tracer.

Where “and” joins values, the source holds several entries; their conditions need not be identical. Equal entries are not always repeated.

Sequence of Streptavidin-CH3µ Preparation A (chain): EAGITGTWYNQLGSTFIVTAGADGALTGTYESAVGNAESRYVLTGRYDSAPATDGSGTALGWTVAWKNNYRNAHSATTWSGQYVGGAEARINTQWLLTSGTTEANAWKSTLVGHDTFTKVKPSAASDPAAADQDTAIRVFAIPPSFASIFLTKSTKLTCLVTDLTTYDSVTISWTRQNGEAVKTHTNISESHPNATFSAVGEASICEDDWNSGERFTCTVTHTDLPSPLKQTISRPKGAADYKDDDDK
Sequence of Streptavidin-CH3µ Preparation B (chain): as above

Regarding Streptavidin-CH3µ Preparation A, the A450 is 0.212 absorbance and 0.183 absorbance in assay [1]; 1.91 absorbance and 1.85 absorbance in assay [2]; 1.19 absorbance and 1.11 absorbance in assay [3]; 1.07 absorbance and 1.08 absorbance in assay [4].
As to Streptavidin-CH3µ Preparation B, the A450 in assay [5] is 1.2 absorbance and 1.34 absorbance.

Values taken from patent US7026446.
